Data on two molecules can be found in US20240327526A1.

Assay [1] has as its target ActRIIB-huFc (human). Nature of the assay: BIAcore.
Assay [2] addresses ActRIIB-huFc (human). Nature of the assay: KinExA. A general note: Kinetic exclusion samples the free partner from a solution-phase mixture.
Assay [3] has as its target ActRIIB-huFc (human). As to the kind of experiment: binding affinity, method not stated.

Sequence of ActRIIB-huFc (human) (chain, as listed by the source limits assumed, form in doubt): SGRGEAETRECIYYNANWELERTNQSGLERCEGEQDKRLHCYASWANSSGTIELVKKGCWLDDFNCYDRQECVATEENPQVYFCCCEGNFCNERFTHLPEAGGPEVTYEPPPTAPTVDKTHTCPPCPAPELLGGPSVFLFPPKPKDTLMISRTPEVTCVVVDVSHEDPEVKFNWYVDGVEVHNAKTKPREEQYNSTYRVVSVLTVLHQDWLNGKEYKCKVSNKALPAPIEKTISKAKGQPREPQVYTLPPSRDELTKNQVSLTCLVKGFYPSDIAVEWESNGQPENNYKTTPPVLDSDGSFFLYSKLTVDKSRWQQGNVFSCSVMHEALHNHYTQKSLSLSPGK

B1: M43 (antibody, human IgG2, lambda, V domains shown)
VH: EVQLLESGGGLVQPGGSLRLSCAASGFTFRNSAMSWVRQAPGKGLEWVSGISVTGGSTFYTDSVKGRFTVSRDNSRNTLYLQMNSLRAEDTAVYYCAKVYYYSFFDYWGQGTLVTVSS
VL: QTVVTQEPSFSVSPGGTVTLTCGFNSGSVSTSYWPSWYQQTPGQAPRTLIYNTNTRSSGVPDRFSGSILGNKAALTITGAQADDESDYYCVLWMGSGIWVFGGGTKLTVLG
On to B1, for which the Kd (in general, a measure of binding affinity in units of concentration) in the assay with ActRIIB-huFc (human) [1] came to 1 pM. Further, in the assay with ActRIIB-huFc (human) [2], the Kd was less than 1 pM and the fold improvement of affinity over the parental molecule R31-1 was 10 fold.

B2: Anti-ActRIIB human IgG R31-1 (antibody, V domains shown)
VH: EVQLLESGGGLVQPGGSLRLSCAASGFTFRNYAMSWVRQAPGKGLEWVSGISVTGGSTYYTDSVKGRFTVSRDNSRNTLYLQMNSLRAEDTAVYYCAKVYYSSFFDYWGQGTLVTVSS
VL: QTVVTQEPSFSVSPGGTVTLTCGFNSGSVSTSYYPSWYQQTPGQAPRTLIYNTNTRSSGVPDRFSGSILGNKAALTITGAQADDESDYYCVLYMGSGIWVFGGGTKLTVLG
On to B2, for which the results for the equilibrium dissociation constant (Kd) with ActRIIB-huFc (human) [1] and in the assay with ActRIIB-huFc (human) [3] were 10 pM and less than 10 pM, respectively.
